Assay [1] addresses T1, LAG-3-hFc protein (human LAG-3 extracellular region with hFc tag) (human, UniProt P18627 23-450).
T1 construct: also called hLAG-3-hFc; LAG-3 protein; not shown: human IgG Fc fragment (hFc) of the pCpC vector
T1 sequence: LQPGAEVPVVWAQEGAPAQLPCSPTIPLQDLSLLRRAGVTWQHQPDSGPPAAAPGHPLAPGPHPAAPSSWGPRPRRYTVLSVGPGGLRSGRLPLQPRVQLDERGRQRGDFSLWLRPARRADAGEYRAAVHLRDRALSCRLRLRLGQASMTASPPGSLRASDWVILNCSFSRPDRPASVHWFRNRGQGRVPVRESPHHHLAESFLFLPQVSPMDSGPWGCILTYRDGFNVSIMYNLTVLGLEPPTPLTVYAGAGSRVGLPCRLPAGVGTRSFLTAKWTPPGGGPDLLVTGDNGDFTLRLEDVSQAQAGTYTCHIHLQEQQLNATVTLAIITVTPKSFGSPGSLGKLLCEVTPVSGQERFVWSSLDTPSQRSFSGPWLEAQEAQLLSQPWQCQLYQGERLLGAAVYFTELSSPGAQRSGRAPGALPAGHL
The assay can be described thus: FACS, inhibition of LAG-3-hFc binding to MHC II on Raji cells, antibody 0.274 nM. Here is the method:
(§1) The FACS reaction plate incubating the Raji cells was centrifuged to discard the supernatant. The above mixture was added as 100 μl per well to Raji cells and incubated on ice for 1-2 hours. The plate was washed twice with blocking solution (PBS, 2% fetal bovine serum) by centrifugation, added with 100 microliters of fluorescent (Alexa 488)-labeled secondary antibodies per well, and incubated on ice for 1.0 hours. The plate was washed 2-3 times by centrifugation with blocking solution (PBS, 2% fetal bovine serum), added with 100 microliters of PBS per well to suspend cells, and detected using FACS (FACS Calibur, BD) and the results were analyzed. Wherein, the IgG control was murine IgG, and the data in the table is the inhibition rate (%).
(In general: A flow cytometer gives signals particle by particle.)

In assay [2] the target is T2, monkey LAG-3 on cells (HEK293-cLAG-3 stable cell line) (monkey, UniProt P18627 24-525 (human entry)).
T2 construct: Full-length monkey (Chinese monkey) LAG-3 gene expressed on HEK293 cells
T2 chain: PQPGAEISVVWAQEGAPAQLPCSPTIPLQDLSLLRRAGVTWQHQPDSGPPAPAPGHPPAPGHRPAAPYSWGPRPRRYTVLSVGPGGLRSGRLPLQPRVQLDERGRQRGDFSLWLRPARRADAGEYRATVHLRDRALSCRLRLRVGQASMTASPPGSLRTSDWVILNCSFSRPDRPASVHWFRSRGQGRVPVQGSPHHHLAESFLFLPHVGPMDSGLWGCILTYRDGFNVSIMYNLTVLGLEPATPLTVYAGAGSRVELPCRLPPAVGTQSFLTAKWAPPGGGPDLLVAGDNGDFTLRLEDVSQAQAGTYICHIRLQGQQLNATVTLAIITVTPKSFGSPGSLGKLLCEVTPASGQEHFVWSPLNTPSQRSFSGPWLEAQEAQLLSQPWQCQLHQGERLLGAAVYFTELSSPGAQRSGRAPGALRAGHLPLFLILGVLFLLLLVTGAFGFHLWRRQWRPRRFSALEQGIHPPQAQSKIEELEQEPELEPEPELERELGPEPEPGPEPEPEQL
The assay can be described thus: FACS, HEK293-cLAG-3, antibody 0.320 nM. From the text:
(§2) The pIRES plasmid with the monkey-derived full-length gene was transfected into the HEK293 cell line to construct a HEK293 stable cell line containing monkey LAG-3 (herein referred to as HEK293-cLAG-3 stable cell line). The HEK293-hLAG-3 stable cell line and HEK293-cLAG-3 stable cell line were expanded in a T-75 cell culture flask to a 90% confluence. The medium was aspirated, and the cells were washed with HBSS (Hanks' Balanced Salt Solution) 1-2 times, then treated with a enzyme-free cell dissociation fluid (Versene solution: Life technology) and the cells were collected. The cells were washed with HBSS buffer for 1-2 times. After counted, the cells were diluted with HBSS to 1-2×10⁶ cells per ml, added with 1% goat serum blocking solution, incubated on ice for 20-30 minutes, and then washed with HBSS for 2 times by centrifugation. The collected cells were suspended in the FACS buffer (HBSS+1% BSA) to 2×10⁶ cells/ml, added as 100 microliters per well to a 96-well FACS reaction plate, added with 100 microliters per well of the antibody sample to be tested, incubated on ice for 1-2 hours. The plate was washed twice with the FACS buffer by centrifugation, added with 100 microliters of fluorescent (Alexa 488)-labeled secondary antibodies per well, and incubated on ice for 0.5-1.0 hours. The plate was washed 2-3 times with FACS buffer by centrifugation, added with 100 μl fixative solution (4% Paraformaldehyde) per well to suspend the cells. 5-10 minutes later, it was washed 1-2 times with FACS buffer by centrifugation. The cells were suspended with 100 microliters of FACS buffer, FACS (FACSCalibur, BD) was used for detection and the results were analyzed.

The target in assay [3] is T3, human LAG-3 on cells (HEK293-hLAG-3 stable cell line) (human, UniProt P18627 23-525).
T3 sequence: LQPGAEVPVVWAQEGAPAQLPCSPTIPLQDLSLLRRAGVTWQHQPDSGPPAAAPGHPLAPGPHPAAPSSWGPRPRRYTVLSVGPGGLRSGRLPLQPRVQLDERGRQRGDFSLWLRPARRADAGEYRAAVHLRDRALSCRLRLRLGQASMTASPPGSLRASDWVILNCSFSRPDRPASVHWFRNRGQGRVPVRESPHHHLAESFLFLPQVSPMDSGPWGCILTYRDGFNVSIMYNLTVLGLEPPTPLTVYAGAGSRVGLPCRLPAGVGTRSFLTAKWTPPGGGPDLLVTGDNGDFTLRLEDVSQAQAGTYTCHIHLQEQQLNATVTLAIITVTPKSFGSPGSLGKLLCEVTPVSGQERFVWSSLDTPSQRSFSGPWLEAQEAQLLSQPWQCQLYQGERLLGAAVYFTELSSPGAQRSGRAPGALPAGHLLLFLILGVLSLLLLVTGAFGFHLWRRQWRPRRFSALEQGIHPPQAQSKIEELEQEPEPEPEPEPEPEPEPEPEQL
The assay can be described thus: FACS, HEK293-hLAG-3, antibody 1.600 nM.
Source text: as §2

The target of assay [4] is T1, LAG-3-hFc protein (human LAG-3 …). Description: FACS, inhibition of LAG-3-hFc binding to MHC II on Raji cells, antibody 200.000 nM. On the procedure:
as §1

The text below walks through data of US20210155689A1 (SHANGHAI PHARMAEXPLORER, published 2021).

Numbering of substitutions follows the chain as printed.

B1: 105F1E10 mouse-human chimeric antibody (antibody, V domains shown)
VH: EVQLQQSGPELVKPGASVKMSCRASGYTFTDFKMHWMKQSHGKSLEWIGYIAPNNGGTAYNQKFRGKATLTVNESSNTAYMELRSLTSEDSAVYYCVDWDDVDYWGQGTTLTVSS
VL: DIKMTQSPSSMYASLGERVTITCKASQDINSYLSWFQQKSGKSPKTLIYRANRLVDGVPSRFSGSGSGQDYSLTISSLEYEDMGIYYCLQYVEFPLTFGAGTKLELK
notes: also called mAb009-105F1E10
B1: the results for the “Inhibition rate (%)” value in assay [1] and in assay [4] were -10.1% and 96%, respectively. The Mean fluorescence intensity in assay [2] worked out at 5.72; in assay [3], 34.7.

B2: 405B8H3 mouse-human chimeric antibody (antibody, V domains shown)
VH: QVQLQQSGAELVRPGASVTLSCKASGYTFTDYEMHWVKQTPVHGLEWIGATDPETGNSAYNQKFKGKAIMTADKSSSTAYMELRSLTSEDSAVYYCISTGWNDWGQGTSLTVSS
VL: B1 VL with S40P, N52D, V55L, E81G, V92D, L96Y, A100G, L106I
notes: also called mAb103-405B8H3
Consider B2, for which the “Inhibition rate (%)” value was found to be 4.3% in assay [1] and 95.2% in assay [4]. For the same molecule, the results for the Mean fluorescence intensity in assay [2] and in assay [3] were 10.3 and 62.3, respectively.

B3: 409D4E10 mouse-human chimeric antibody (antibody, V domains shown)
VH: B2 VH with Y27N, G56D, S58T, M70L, A72T, S98T, T99S
VL: B1 VL with S40P, V55L, V92N, L96Y, A100G, L106I
notes: also called mAb112-409D4E10
Take B3: the “Inhibition rate (%)” value was determined as 11.3% in assay [1] and 95.7% in assay [4]. In addition, the Mean fluorescence intensity in assay [2] amounted to 8.96; in assay [3] it was 56.8.

B4: 409B11E12 mouse-human chimeric antibody (antibody, V domains shown)
VH: B2 VH with P41T, G56S, N57Y, M70L, S98A
VL: B1 VL with I2L, S40P, V55L, V92D, L96Y, A100G, L106I
notes: also called mAb104-409B11E12
B4: the “Inhibition rate (%)” value is 4.4% in assay [1] and 94.8% in assay [4]. Further, the Mean fluorescence intensity in assay [2] came to 11.6; in assay [3], 69.

B5: 556F6B8 mouse-human chimeric antibody (antibody, V domains shown)
VH: RVQLKQSGPGLVQPSQSLSITCTVSGFSLIKYGVHWVRQSPGEGLEWLGVIWRGGITDYNAAFMSRLSITKDNSKSQVFFKMNSLQADDTAIYYCAKWDGPLAMDYWGQGTSVTVSS
VL: DIVMTQSHKFLSTSVGDRVSITCKASQDVGTTVAWYQQKPGQSPKLLIYWASTRHTGVPDRFTGSGSGTDFTLTISNVQSEDLADYFCQQYSSYPYTFGGGTKLEIK
notes: also called mAb123-556F6B8; 556F8B8
With B5, the “Inhibition rate (%)” value stood at 21.5% in assay [1] and 95.2% in assay [4]. Besides, the Mean fluorescence intensity is 8.37 in assay [2] and 39.1 in assay [3].
